Assays:
[1] = molecular target: T1, recombinant extracellular domain (ECD) of the human prolactin receptor (PRLR) (human, UniProt P16471 25-234); assay: Biacore 2000 SPR, antibody captured, PRLR ECD injected
T1 construct: also called PRLR ECD; Human PRLR; not shown: His tag
T1 sequence: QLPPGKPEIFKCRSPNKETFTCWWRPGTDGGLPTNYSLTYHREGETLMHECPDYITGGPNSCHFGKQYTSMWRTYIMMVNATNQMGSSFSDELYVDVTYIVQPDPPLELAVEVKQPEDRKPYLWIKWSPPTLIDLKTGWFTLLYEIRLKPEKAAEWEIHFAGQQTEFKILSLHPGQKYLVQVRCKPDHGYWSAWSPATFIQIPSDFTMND

[2] = molecular target: T1, recombinant extracellular domain (ECD) …; assay: Biacore 2000 SPR, antibody captured on Protein A/G, PRLR ECD titrated, 1:1 Langmuir, 25 C
[3] = molecular target: T2, cynomolgus PRLR ECD (cynomolgus, UniProt A0A2K5WXK1 25-234); assay: Biacore SPR, antibody captured on Protein A/G, kinetic titration of PRLR ECD, 1:1 Langmuir
T2 construct: extracellular domain; also called Cyno PRLR
T2 sequence: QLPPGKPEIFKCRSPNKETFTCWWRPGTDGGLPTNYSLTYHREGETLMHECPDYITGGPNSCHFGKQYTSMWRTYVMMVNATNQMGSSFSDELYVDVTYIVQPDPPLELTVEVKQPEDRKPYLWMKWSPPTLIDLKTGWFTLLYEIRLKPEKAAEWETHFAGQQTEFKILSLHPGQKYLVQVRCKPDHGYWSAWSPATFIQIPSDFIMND
Experimental: (§1) Affinity of the chimerized and Human Engineered™ antibodies determined by Biacore analysis. Briefly, a CM5 sensor chip (Biacore) immobilized with Protein A/G (Pierce) via NHS/EDC was used to capture approximately 600 RU of antibody on the chip surface. Five concentrations of PRLR ECD beginning at 5 ug/mL (185 nM) and serially diluted at 5× dilution to 0.3 nM were injected from lowest to highest concentration in the kinetic titration injection mode, and 15 minutes of dissociation data was collected. The experiments were double-referenced, i.e. an adjacent flow cell response was subtracted automatically, and the response from a buffer injection experiment was subtracted from the experimental data set. Kinetic and derived parameters (kₐ, kd and KD) were determined by fitting to a 1:1 Langmuir model using BiaEval software customized to the kinetic titration injection mode. Affinity measurements of both chimeric and all Human Engineered™ antibodies against human and cynomolgus PRLR ECD are summarized in Table 9 and Table 10.

[4] = molecular target: T1, recombinant extracellular domain (ECD) …; assay: as above
Experimental: as §1

[5] = molecular target: T2, cynomolgus PRLR ECD; assay: Biacore SPR, antibody covalently immobilized on CM4 chip, PRLR ECD 111 to 1.37 nM
[6] = molecular target: T1, recombinant extracellular domain (ECD) …; assay: as above
[7] = molecular target: T3, murine PRLR ECD (mouse, UniProt Q08501 20-229); assay: as above
T3 construct: extracellular domain; also called Mouse PRLR
T3 sequence (looked up): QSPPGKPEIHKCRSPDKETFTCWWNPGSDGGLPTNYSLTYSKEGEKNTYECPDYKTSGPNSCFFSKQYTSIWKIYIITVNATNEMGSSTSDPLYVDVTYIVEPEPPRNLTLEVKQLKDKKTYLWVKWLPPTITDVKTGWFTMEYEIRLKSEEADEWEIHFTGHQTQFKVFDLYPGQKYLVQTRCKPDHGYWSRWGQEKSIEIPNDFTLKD

[8] = molecular target: T4, rat PRLR ECD (rat, UniProt P05710 20-229); assay: as above
T4 construct: extracellular domain
T4 sequence (looked up): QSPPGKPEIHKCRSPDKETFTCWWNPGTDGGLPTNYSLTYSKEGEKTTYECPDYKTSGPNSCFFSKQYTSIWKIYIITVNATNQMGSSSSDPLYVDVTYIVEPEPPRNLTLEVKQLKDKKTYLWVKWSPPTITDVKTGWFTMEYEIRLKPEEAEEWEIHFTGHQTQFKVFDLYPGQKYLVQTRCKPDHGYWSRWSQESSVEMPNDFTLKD

B1: XPA.06.217 (Fc fusion)
chain 1: EVQLLESGGGLVQPGGSLRLSCAASGFTFSSYAMHWVRQAPGKGLEWVSSISSSSSSIYYADSVKGRFTISRDNSKNTLYLQMNSLRAEDTAVYYCARGGGQQLGAFDIWGQGTLVTV
chain 2: not shown
- Kd [1]: 7 nM

B2: XPA.06.145 (Fc fusion)
chain 1: EVQLLESGGGLVQPGGSLRLSCAASGFTFSNYGMHWVRQAPGKGLEWVSLISWDGGRTSYTDSVKGRFTISRDNSKNTLYLQMNSLRAEDTAVYYCARGLIGDNWGQGTLVTVSS
chain 2: QSVLTQPPSASGTPGQRVTISCTGSSSNIGAGYDVHWYQQLPGTAPKLLIYDNNKRPSGVPDRFSGSKSGTSASLAISGLRSEDEADYYCAAWDDSLNGWVFGGGTKLTVL
- Kd [1]: 10 nM

B3: XPA.06.158 (Fc fusion)
chain 1: EVQLLESGGGLVQPGGSLRLSCAASGFTFSSYGMHWVRQAPGKGLEWVSLISWDGYRTHYADSVKGRFTISRDNSKNTLYLQMNSLRAEDTAMYYCTTGASYHALWGQGTLVTV
chain 2: QSVLTQPPSASGTPGQRVTISCSGSRSNIGNNYVSWYQQLPGTAPKLLIYDDIKRPSGVPDRFSGSKSGTSASLAISGLRSEDEADYYCATWDDSLNGPVFGGGTKLTVL
- Kd [2]: 0.7 nM
- koff [2]: 7.3e-05 s⁻¹
- kon [2]: 110000 M⁻¹ s⁻¹
- Kd [1]: 0.7 nM

B4: XPA.06.131 (Fc fusion)
chain 1: EVQLLESGGGLVQPGGSLRLSCAASGFTFNSYPVHWVRQAPGKGLEWVAVISYDGNTKYYADSVKGRFTISRDNSKNTLYLQMNSLRAEDTAVYYCARDNPPFDYWGQGTLATV
chain 2: QSVLTQPPSASGTPGQRVTISCSGSSSNIGNNYVSWYQQLPGTAPKLLIYDNNNRPSGVPDRFSGSKSGTSASLAISGLRSEDEADYYCEAWDDTLNGPHVVFGGGTKLTVL
- Kd [2]: 2.1 nM
- koff [2]: 7.3e-05 s⁻¹
- kon [2]: 34000 M⁻¹ s⁻¹

B5: XPA.06.147 (Fc fusion)
chain 1: EVQLLESGGGLVQPGGSLRLSCAASGFTFSSYGMHWVRQAPGKGLEWVSAIGGRGVSTYYADSVKGRFTISRDNSKNTLYLQMNSLRAEDTAVYYCARGSNWTHALGFDPWGQGTLVTV
chain 2: not shown
- Kd [2]: 9.8 nM
- koff [2]: 0.0053 s⁻¹
- kon [2]: 550000 M⁻¹ s⁻¹

B6: he.06.642-1 (antibody, V domains shown)
VH: EVQLVESGGGLVQPGGSLRLSCAVSGFTFSSYGMSWVRQAPGKRLEWVATVSSGGTYTYYPDSVKGRFTISRDNSKNTLYLQMNSLRAEDTAMYYCARHRGNYYATYYYAMDYWGQGTLVTVSS
VL: DIVLTQSPDSLAVSLGERATINCKASKSVSTSGYTYMHWYQQKPGQPPKLLIYLASNRESGVPDRFSGSGSGTDFTLTISPVQAEDVATYYCQHSGELPPSFGQGTKLEIK
notes: Human Engineered
- Kd [3]: 31 nM
- Kd [4]: 2 nM

B7: he.06.642-2 (antibody, V domains shown)
VH: EVQLVESGGGLVQPGGSLRLSCAVSGFTFSSYGMSWVRQAPGKGLEWVATVSSGGTYTYYPDSVKGRFTISRDNSKNTLYLQMNSLRAEDTAVYYCARHRGNYYATYYYAMDYWGQGTLVTVSS
VL: DIVLTQSPDSLAVSLGERATINCKASKSVSTSGYTYMHWYQQKPGQPPKLLIYLASNRESGVPDRFSGSGSGTDFTLTISPVQAEDVATYYCQHSGELPPSFGQGTKLEIK
notes: Human Engineered
- Kd [3]: 47 nM
- Kd [4]: 3.1 nM
- Kd [5]: 38.9 nM
- Kd [6]: 2.6 nM
- Kd [7]: 2.7 nM
- Kd [8]: 1.9 nM

B8: XPA.06.178 (Fc fusion)
chain 1: EVQLLESGGGLVQPGGSLRLSCAASGFTFDDYGMSWVRQVPGKGLEWVSLISWDGGSTYYADSVKGRFTISRDNSKNTLYLQMNSLRAEDTAVYYCARPSGAYPTPFDNWGQGTLVTV
chain 2: not shown
- Kd [1]: 20 nM

B9: he.06.275-1 (antibody, V domains shown)
VH: DVQLQESGPGLVKPSQTLSLTCTVTGYSITSDYAWNWIRQFPGKKLEWMGYISYSGSTSYNPSLKSRITISRDTSKNQFSLQLNSVTAADTATYFCARDYGYVFDYWGQGTTLTVSS
VL: DVQITQSPSSLSASPGDRITLTCRASKNIYKYLAWYQEKPGKTNNLLIYSGSTLHSGIPSRFSGSGSGTDFTLTISSLQPEDFAMYYCQQHNDYPYTFGQGTKLEIK
notes: Human Engineered
- Kd [3]: 1.6 nM
- Kd [4]: 0.5 nM

B10: he.06.275-2 (antibody, V domains shown)
VH: QVQLQESGPGLVKPSQTLSLTCTVSGYSITSDYAWNWIRQFPGKGLEWMGYISYSGSTSYNPSLKSRITISRDTSKNQFSLQLNSVTAADTAVYFCARDYGYVFDYWGQGTTLTVSS
VL: DVQITQSPSSLSASPGDRITLTCRASKNIYKYLAWYQEKPGKTNNLLIYSGSTLHSGIPSRFSGSGSGTDFTLTISSLQPEDFAMYYCQQHNDYPYTFGQGTKLEIK
notes: Human Engineered
- Kd [3]: 1.9 nM
- Kd [4]: 0.61 nM

B11: he.06.275-3 (antibody, V domains shown)
VH: DVQLQESGPGLVKPSQTLSLTCTVTGYSITSDYAWNWIRQFPGKKLEWMGYISYSGSTSYNPSLKSRITISRDTSKNQFSLQLNSVTAADTATYFCARDYGYVFDYWGQGTTLTVSS
VL: DVQITQSPSSLSASPGDRITLTCRASKNIYKYLAWYQEKPGKANKLLIYSGSTLHSGIPSRFSGSGSGTDFTLTISSLQPEDFAMYYCQQHNDYPYTFGQGTKLEIK
notes: Human Engineered
- Kd [3]: 1.3 nM
- Kd [4]: 0.43 nM

B12: XPA.06.167 (Fc fusion)
chain 1: EVQLLESGGGLVQPGGSLRLSCAASGFTFGSYGMHWVRQAPGKGLEWVSLISWDGGSTYYADSVKGRFTISRDNSKNTLYLQMNSLRAEDTAVYYCASSISAAATGLDYWGQGTLVTV
chain 2: not shown
- Kd [1]: 4 nM

B13: XPA.06.141 (Fc fusion)
chain 1: EVQLLESGGGLVQPGGSLRLSCAASGFTFSNSGMHWVRQAPGKGLEWVAAISYDGSNKYYADSVKGRFTISRDNSKNTLYLQMNSLRAEDTAVYYCARADSSGTVDYWGQGTLVTV
chain 2: not shown
- Kd [2]: 8.4 nM
- koff [2]: 0.00053 s⁻¹
- kon [2]: 63000 M⁻¹ s⁻¹
